Here are results for 2 molecules from patent US20140147887A1, “NOVEL 12 ALPHA-HYDROXYSTEROID DEHYDROGENASES, PRODUCTION AND USE THEREOF” (PharmaZell GmbH, priority 2006, published 2014).

The test is described as follows: Standard 12α-HSDH activity determination (NADP+-dependent oxidation of cholic acid, absorption at 340 nm). Type of test: biochemical. Further details: unit not given here. The following applies: cell lysate. The protocol: The activity is defined as follows: 1 U of the enzyme corresponds to the amount of enzyme which catalyzes the reaction of 1 μmol/min of a 5 mM cholic acid solution in potassium phosphate buffer (50 mM, pH 8.0) at room temperature (i.e. about 20° C.-23° C.).
For the activity determination, 790 μl of potassium phosphate buffer (50 mM, pH 8.0), […] of cholic acid (50 mM in potassium phosphate buffer (50 mM, pH 8.0)) and 10 μl of enzyme solution to be measured were mixed in a cuvette. 100 μl of NADP^+ (2.5 mM) was added at the start of the reaction and the increase in the absorption at 340 nm was determined photometrically. The gradient over 30 s was determined at RT. Determination of the activity took place according to the Lambert-Beer's law.

[1] abbreviates: E. coli BL21 (DE3), expression period 4 h.
Setting [2] is: E. coli BL21 (DE3), expression period 22 h.
Where [3] appears, read: E. coli Rosetta (DE3), expression period 4 h.
The mark [4] stands for this setting: E. coli Rosetta (DE3), expression period 22 h.

B1: HSDH_short: N-terminally truncated short version of 12α-HSDH from Clostridium sp. group P strain 48-50, SEQ ID NO: 4 (protein)
chain: IFDGKVAIITGGGKAKSIGYGIAVAYAKEGANLVLTGRNEQKLLDAKEELERLYGIKVLPLAVDVTPSDESEDRVKEAVQKVIAEFGRIDVLINNAQASASGIPLSMQTKDHFDLGIYSGLYATFYYMRECYPYLKETQGSVINFASGAGLFGNVGQCSYAAAKEGIRGLSRVAATEWGKDNINVNVVCPLAMTAQLENFKLSYPEAYEKNLRGVPMGRFGDPELDIGRVCVQLGSPDFKYMSGETLTLEGGMGQRP
As to B1, the “Activity [of culture medium]” value reads like this: under setting [1], 12800; under setting [2], 33000; under setting [3], 3400; under setting [4], 24300.

B2: HSDH_long: long version of 12α-HSDH from Clostridium sp. group P strain 48-50, SEQ ID NO: 2, recombinantly expressed in E. coli (protein, listed as Clostridium sp.)
chain: MDFIDFKEMGRMGIFDGKVAIITGGGKAKSIGYGIAVAYAKEGANLVLTGRNEQKLLDAKEELERLYGIKVLPLAVDVTPSDESEDRVKEAVQKVIAEFGRIDVLINNAQASASGIPLSMQTKDHFDLGIYSGLYATFYYMRECYPYLKETQGSVINFASGAGLFGNVGQCSYAAAKEGIRGLSRVAATEWGKDNINVNVVCPLAMTAQLENFKLSYPEAYEKNLRGVPMGRFGDPELDIGRVCVQLGSPDFKYMSGETLTLEGGMGQRP
In the case of B2, the “Activity [of culture medium]” value is, setting by setting: under setting [1], 12700; under setting [2], 36800; under setting [3], 3100; under setting [4], 19500.
